Test results: US20110300138A1 (published 2011)

How the values were obtained:
[1] = biological target: full length wild type human TSHR (human) (UniProt P16473); experiment: TSHR260-AP bridge ELISA, wild type TSHR on wells; IgG at 1 µg/mL in HBD
[2] = biological target: full length wild type human TSHR (human) (UniProt P16473); experiment: TSHR260-AP bridge ELISA, wild type TSHR on wells; IgG at 0.05 µg/mL in HBD
[3] = biological target: human thyroid stimulating hormone receptor (TSHR), full length (human) (UniProt P16473); experiment: 125I-K1-70 Fab (competitor) binding to TSHR coated tubes; test sample 100 µg/mL in HBD serum
[4] = biological target: TSH receptor (TSHR), full length human, coated on tubes (human) (UniProt P16473); experiment: inhibition of 125I-TSH binding to TSHR coated tubes; 0.1 µg/mL, diluted in assay buffer
[5] = biological target: thyroid stimulating hormone receptor (TSHR), full length, coated on tubes (human) (UniProt P16473); experiment: inhibition of 125I-TSH binding, TSHR coated tubes; antibody 10 µg/mL in assay buffer
[6] = biological target: human thyroid stimulating hormone receptor (TSHR), full length (human) (UniProt P16473); experiment: 125I-K1-70 Fab (competitor) binding to TSHR coated tubes; test sample 10 µg/mL in HBD serum
[7] = biological target: full length human TSHR with mutation Arg255 Asp (human) (UniProt P16473); experiment: TSHR260-AP bridge ELISA, Arg255 Asp TSHR on wells; IgG at 0.005 µg/mL in HBD
[8] = biological target: full length human TSHR with mutation Arg255 Asp (human) (UniProt P16473); experiment: TSHR260-AP bridge ELISA, Arg255 Asp TSHR on wells; IgG at 0.01 µg/mL in HBD
[9] = biological target: full length wild type human TSHR (human) (UniProt P16473); experiment: TSHR260-AP bridge ELISA, wild type TSHR on wells; IgG at 0.005 µg/mL in HBD

Chain of M22 IgG (antibody) (VH): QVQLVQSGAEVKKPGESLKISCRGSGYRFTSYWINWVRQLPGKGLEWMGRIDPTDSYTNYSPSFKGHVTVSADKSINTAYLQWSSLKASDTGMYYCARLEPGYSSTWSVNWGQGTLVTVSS
Chain of M22 IgG (antibody) (V domain): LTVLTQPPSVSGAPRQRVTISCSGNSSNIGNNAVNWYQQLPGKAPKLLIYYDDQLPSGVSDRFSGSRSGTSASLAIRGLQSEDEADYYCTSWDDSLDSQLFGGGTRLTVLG

| Substance | Mean absorbance at 405 nm (absorbance at 405 nm) [1] | Mean absorbance at 405 nm (absorbance at 405 nm) [2] | Inhibition of binding (%) [3] | Inhibition of binding (%) [4] | Inhibition of binding (%) [5] | Inhibition of binding (%) [6] | Mean absorbance at 405 nm (absorbance at 405 nm) [7] | Mean absorbance at 405 nm (absorbance at 405 nm) [8] | Mean absorbance at 405 nm (absorbance at 405 nm) [9] |
| --- | --- | --- | --- | --- | --- | --- | --- | --- | --- |
| 9D33 IgG (antibody) | 0.329 | 0.056 | 55.7% | 48.3% | 58.7% | 47.7% | 0.001 | -0.004 | 0.006 |
| M22 IgG (antibody) | 1.17 | 0.332 | – | – | – | – | -0.007 | -0.002 | 0.032 |
